Assay results reported in the supplement of paper PMC10567573.
± gives the standard deviation.

Assay: protein stability index of a GFP-peptide fusion (GPS, HEK-293T) (PSI 1-6); higher = more stable
[1] = treatment: DMSO, c terminus: a fixed tail appended
[2] = treatment: MLN4924 1 uM, 8 h, c terminus: a fixed tail appended
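Further: 24-mer peptide tiles fused after GFP, lentivirally expressed, FACS-sorted into six equal bins by GFP/DsRed ratio, decoded by Illumina sequencing, PSI is the read-weighted mean bin number.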

In the case of RRGGGPVFPAPVVGSGGATSGKLL [ZBTB22], the protein stability index [1] is reported as 4.104 ± 0.027 and the protein stability index [2] is reported as 4.33 ± 0.29.
With GLPFILRPTSCWQLDWDELETNQQ [M1AP] the protein stability index [1] was 2.62 ± 0.056 and the protein stability index [2] was 2.67 ± 0.24.
Work on QREGTGKTVSLQIFSVLNSDDAAA [SMOC2] yielded a protein stability index [1] of 3.38 ± 0.24 and a protein stability index [2] of 3.35 ± 0.4.
NGGMATTSAEIELPDVEPAAFLAL [BTBD1] gave a protein stability index [1] of 3.86 ± 0.25 and a protein stability index [2] of 4.02 ± 0.22.
EELYKEIDGVATTRYSVAGLSPYS [PTPRD] showed a protein stability index [1] of 3.14 ± 0.18 and a protein stability index [2] of 3.36 ± 0.22.
In the case of GGGPEATLSISDVRTLSEPPDKGE [ZBTB22], the protein stability index [1] is reported as 5.33 ± 0.29 and the protein stability index [2] is reported as 5.44 ± 0.31.
In the case of GSSYPTTTISYLPHAPPFAGGHPA [JUNB], the protein stability index [1] is reported as 3.12 ± 0.14 and the protein stability index [2] is reported as 3.09 ± 0.13.
Work on YGNGMRKSPEMPVILEVSLEGSHD [RTP4] yielded a protein stability index [1] of 3.58 ± 0.26 and a protein stability index [2] of 3.97 ± 0.41.
Sequence EVKTRHSEKSQREDEEEEEGENYQ [CHGB] has a protein stability index [1] of 5.64 ± 0.28 and a protein stability index [2] of 5.48 ± 0.31.
LDKSTTGVSEILLKTQMKMSLKCL [FEM1B] gave a protein stability index [1] of 2.6 ± 0.31 and a protein stability index [2] of 2.17 ± 0.26.
FFFAVLHAIYSLSYPMRRSYRYKL [STEAP1] showed a protein stability index [1] of 2.31 ± 0.4 and a protein stability index [2] of 2.43 ± 0.53.
With KILDELEKVLDQVETELQRRNEET [GDAP1] the protein stability index [1] was 3.08 ± 0.1 and the protein stability index [2] was 3.53 ± 0.081.
Work on SLRRRGASAAARLGCNRQSWCLKR [TRIM14] yielded a protein stability index [1] of 3.28 ± 0.28 and a protein stability index [2] of 3.16 ± 0.58.
With LRQQQDEAYLASLRADQEKERKKR [FAF2] the protein stability index [1] was 4.36 ± 0.57 and the protein stability index [2] was 4.53 ± 0.4.
Sequence LNPHIHLMGDESACIAYIRITQYL [CAMK2A] has a protein stability index [1] of 2.8 ± 0.44 and a protein stability index [2] of 2.71 ± 0.51.
Sequence ENDGFVFKMPWKPTHPSSTHALAE [CDC25B] has a protein stability index [1] of 3.55 ± 0.44 and a protein stability index [2] of 3.36 ± 0.16.
FSAHYDAVEAELKSSTVGLVTLND [FAM50A] showed a protein stability index [1] of 3.86 ± 0.16 and a protein stability index [2] of 3.94 ± 0.32.
Work on ACSAWLCPGLRLPGSLAGRRAGPA [AUH] yielded a protein stability index [1] of 2.2 ± 0.31 and a protein stability index [2] of 2.04 ± 0.9.
In the case of RPVSCSGRDALLDQIRQGIQLKSV [WASL], the protein stability index [1] is reported as 5.08 ± 0.56 and the protein stability index [2] is reported as 4.95 ± 0.21.
For KCLQLLGNLGSLEKSVTKDAEGLA [INTS4], the protein stability index [1] was 2.82 ± 0.46 and the protein stability index [2] was 3.08 ± 0.099.
VFQHGDNSFRLLFDVVVILTCSLS [MCOLN1] gave a protein stability index [1] of 3.25 ± 0.13 and a protein stability index [2] of 3.32 ± 0.21.
Work on VRRQRSADEQLHCAGKAKRSGGHA [ESR2] yielded a protein stability index [1] of 4.51 ± 0.32 and a protein stability index [2] of 4.75 ± 0.13.
In the case of TDSKELSMAKEVIAKELSKTYQET [ZBED1], the protein stability index [1] is reported as 4.91 ± 0.1 and the protein stability index [2] is reported as 4.82 ± 0.57.
AVNSGGPLESIDHSVTGFLCEPDP [ALG2] gave a protein stability index [1] of 4.82 ± 0.21 and a protein stability index [2] of 4.91 ± 0.22.
RKMLEQGYSPNGRDANGWTLLHFS [ASB7] gave a protein stability index [1] of 2.34 ± 0.14 and a protein stability index [2] of 2.49 ± 0.21.
Sequence SVGGVPGGTGSGDGNKIFLCHCGK [ZBTB22] has a protein stability index [1] of 3.51 ± 0.19 and a protein stability index [2] of 3.73 ± 0.47.
Work on QKGSHPMCKEHEDEKINIYCLTCE [TRIM63] yielded a protein stability index [1] of 4.64 ± 0.22 and a protein stability index [2] of 4.67 ± 0.17.
SFVLKNFPALLSTGEFLKLPFERL [KLHL13] gave a protein stability index [1] of 1.94 ± 0.42 and a protein stability index [2] of 2.07 ± 0.42.
STHLTVHRRIHTGEKPYECQDCGR [ZNF8] showed a protein stability index [1] of 3.9 ± 0.32 and a protein stability index [2] of 4.1 ± 0.52.
DGFFYFFHGTRQYKFDPKTKRILT [MMP1] gave a protein stability index [1] of 2.14 ± 0.48 and a protein stability index [2] of 2.28 ± 0.23.
FLSLEASTETLVHVSDEDNNADLC [DLC1] gave a protein stability index [1] of 5.11 ± 0.27 and a protein stability index [2] of 5.2 ± 0.12.
VRKKERGREEKCVWKHGITPPLKN [TAF7L] showed a protein stability index [1] of 3.85 ± 0.41 and a protein stability index [2] of 3.83 ± 0.3.
KLKALHVDSAEYSCLKAIVLFTSD [NR2F2] showed a protein stability index [1] of 2.45 ± 0.36 and a protein stability index [2] of 2.27 ± 0.15.
For LSPAGSSQEAADTPDTRHPCSLGS [YJU2B], the protein stability index [1] was 5.24 ± 0.21 and the protein stability index [2] was 5.3 ± 0.23.
Sequence PPTPGRPSLGPALSTGPRGLCAMP [VENTX] has a protein stability index [1] of 3.86 ± 0.37 and a protein stability index [2] of 3.73 ± 0.26.
DENGRPYSPSQYALQYAGDGSVLL [NFE2L1] showed a protein stability index [1] of 3.57 ± 0.39 and a protein stability index [2] of 3.6 ± 0.34.
HHPENGEEAVTVLEDLESELDDPG [ZNF24] showed a protein stability index [1] of 5.49 ± 0.22 and a protein stability index [2] of 5.65 ± 0.16.
Work on PGFSTLSLADQMSLLQSAWMEILI [ESRRG] yielded a protein stability index [1] of 2.27 ± 0.88 and a protein stability index [2] of 2.29 ± 0.4.
Work on SFRRNVGRVLLANSTQADEGKTKK [FBXO34] yielded a protein stability index [1] of 4.71 ± 0.46 and a protein stability index [2] of 4.85 ± 0.35.
In the case of SSRLPQPSGAGKTVVGVPSGKVSS [ZC2HC1A], the protein stability index [1] is reported as 4.62 ± 0.13 and the protein stability index [2] is reported as 4.81 ± 0.12.
Work on DENLFTGEDLDELEEELNTLDLEE [ZC3H15] yielded a protein stability index [1] of 5.18 ± 0.75 and a protein stability index [2] of 5.44 ± 0.21.
Work on ILKIRHGWEDVTKINKTEICSQL [STEAP1] yielded a protein stability index (treatment: DMSO, c terminus: native) of 2.42 ± 0.57 and a protein stability index (treatment: MLN4924 1 uM, 8 h, c terminus: native) of 2.2 ± 0.21.
DLTVGRAPTADDDDDDHDDHEDND [NOL4L] showed a protein stability index [1] of 5.56 ± 0.18 and a protein stability index [2] of 5.5 ± 0.15.
In the case of LKTSKMALSPSATAKRINRTSLSS [CDC14A], the protein stability index [1] is reported as 3.71 ± 0.26 and the protein stability index [2] is reported as 3.54 ± 0.25.
